In US20100285131A1 (Amgen, published 2010):

Each binder was assayed against T1, β-Klotho overexpressed in recombinant human 293T kidney cells (assay: cell-based or functional assay).

Binder | Efficacy (ELK-luciferase, relative to wild-type FGF21)
FGF21 truncation mutant 1-176 (ligand) HPIPDSSPLLQFGGQVRQRYLYTDDAQQTEAHLEIREDGTVGGAADQSPESLLQLKALKPGVIQILGVKTSRFLCQRPDGALYGSLHFDPEACSFRELLLEDGYNVYQSEAHGLPLHLPGNKSPHRDPAPRGPARFLPLPGLPPAPPEPPGILAPQPPDVGSSDPLSMVGPSQGRS | 105%
FGF21 truncation mutant 1-169 (ligand) HPIPDSSPLLQFGGQVRQRYLYTDDAQQTEAHLEIREDGTVGGAADQSPESLLQLKALKPGVIQILGVKTSRFLCQRPDGALYGSLHFDPEACSFRELLLEDGYNVYQSEAHGLPLHLPGNKSPHRDPAPRGPARFLPLPGLPPAPPEPPGILAPQPPDVGSSDPLSMV | 84.9%
FGF21 truncation mutant 1-180 (ligand) HPIPDSSPLLQFGGQVRQRYLYTDDAQQTEAHLEIREDGTVGGAADQSPESLLQLKALKPGVIQILGVKTSRFLCQRPDGALYGSLHFDPEACSFRELLLEDGYNVYQSEAHGLPLHLPGNKSPHRDPAPRGPARFLPLPGLPPAPPEPPGILAPQPPDVGSSDPLSMVGPSQGRSPSYA | 93.2%
FGF21 truncation mutant 1-167 (ligand) HPIPDSSPLLQFGGQVRQRYLYTDDAQQTEAHLEIREDGTVGGAADQSPESLLQLKALKPGVIQILGVKTSRFLCQRPDGALYGSLHFDPEACSFRELLLEDGYNVYQSEAHGLPLHLPGNKSPHRDPAPRGPARFLPLPGLPPAPPEPPGILAPQPPDVGSSDPLS | 20%
FGF21 truncation mutant 1-171 (ligand) HPIPDSSPLLQFGGQVRQRYLYTDDAQQTEAHLEIREDGTVGGAADQSPESLLQLKALKPGVIQILGVKTSRFLCQRPDGALYGSLHFDPEACSFRELLLEDGYNVYQSEAHGLPLHLPGNKSPHRDPAPRGPARFLPLPGLPPAPPEPPGILAPQPPDVGSSDPLSMVGP | 113%
FGF21 truncation mutant 1-166 (ligand) HPIPDSSPLLQFGGQVRQRYLYTDDAQQTEAHLEIREDGTVGGAADQSPESLLQLKALKPGVIQILGVKTSRFLCQRPDGALYGSLHFDPEACSFRELLLEDGYNVYQSEAHGLPLHLPGNKSPHRDPAPRGPARFLPLPGLPPAPPEPPGILAPQPPDVGSSDPL | 20%
FGF21 truncation mutant 1-177 (ligand) HPIPDSSPLLQFGGQVRQRYLYTDDAQQTEAHLEIREDGTVGGAADQSPESLLQLKALKPGVIQILGVKTSRFLCQRPDGALYGSLHFDPEACSFRELLLEDGYNVYQSEAHGLPLHLPGNKSPHRDPAPRGPARFLPLPGLPPAPPEPPGILAPQPPDVGSSDPLSMVGPSQGRSP | 112%
FGF21 truncation mutant 1-178 (ligand) HPIPDSSPLLQFGGQVRQRYLYTDDAQQTEAHLEIREDGTVGGAADQSPESLLQLKALKPGVIQILGVKTSRFLCQRPDGALYGSLHFDPEACSFRELLLEDGYNVYQSEAHGLPLHLPGNKSPHRDPAPRGPARFLPLPGLPPAPPEPPGILAPQPPDVGSSDPLSMVGPSQGRSPS | 95%
FGF21 truncation mutant 1-173 (ligand) HPIPDSSPLLQFGGQVRQRYLYTDDAQQTEAHLEIREDGTVGGAADQSPESLLQLKALKPGVIQILGVKTSRFLCQRPDGALYGSLHFDPEACSFRELLLEDGYNVYQSEAHGLPLHLPGNKSPHRDPAPRGPARFLPLPGLPPAPPEPPGILAPQPPDVGSSDPLSMVGPSQ | 96.1%
FGF21 truncation mutant 1-174 (ligand) HPIPDSSPLLQFGGQVRQRYLYTDDAQQTEAHLEIREDGTVGGAADQSPESLLQLKALKPGVIQILGVKTSRFLCQRPDGALYGSLHFDPEACSFRELLLEDGYNVYQSEAHGLPLHLPGNKSPHRDPAPRGPARFLPLPGLPPAPPEPPGILAPQPPDVGSSDPLSMVGPSQG | 105%
FGF21 truncation mutant 1-165 (ligand) HPIPDSSPLLQFGGQVRQRYLYTDDAQQTEAHLEIREDGTVGGAADQSPESLLQLKALKPGVIQILGVKTSRFLCQRPDGALYGSLHFDPEACSFRELLLEDGYNVYQSEAHGLPLHLPGNKSPHRDPAPRGPARFLPLPGLPPAPPEPPGILAPQPPDVGSSDP | 10%
FGF21 truncation mutant 1-172 (ligand) HPIPDSSPLLQFGGQVRQRYLYTDDAQQTEAHLEIREDGTVGGAADQSPESLLQLKALKPGVIQILGVKTSRFLCQRPDGALYGSLHFDPEACSFRELLLEDGYNVYQSEAHGLPLHLPGNKSPHRDPAPRGPARFLPLPGLPPAPPEPPGILAPQPPDVGSSDPLSMVGPS | 97.5%

The remaining lines, values ahead:

Efficacy (ELK-luciferase, relative to wild-type FGF21) | Binder
120% | FGF21 truncation mutant 5-181 (ligand) DSSPLLQFGGQVRQRYLYTDDAQQTEAHLEIREDGTVGGAADQSPESLLQLKALKPGVIQILGVKTSRFLCQRPDGALYGSLHFDPEACSFRELLLEDGYNVYQSEAHGLPLHLPGNKSPHRDPAPRGPARFLPLPGLPPAPPEPPGILAPQPPDVGSSDPLSMVGPSQGRSPSYAS
12.5% | FGF21 truncation mutant 9-181 (ligand) LLQFGGQVRQRYLYTDDAQQTEAHLEIREDGTVGGAADQSPESLLQLKALKPGVIQILGVKTSRFLCQRPDGALYGSLHFDPEACSFRELLLEDGYNVYQSEAHGLPLHLPGNKSPHRDPAPRGPARFLPLPGLPPAPPEPPGILAPQPPDVGSSDPLSMVGPSQGRSPSYAS
24.9% | FGF21 truncation mutant 8-181 (ligand) PLLQFGGQVRQRYLYTDDAQQTEAHLEIREDGTVGGAADQSPESLLQLKALKPGVIQILGVKTSRFLCQRPDGALYGSLHFDPEACSFRELLLEDGYNVYQSEAHGLPLHLPGNKSPHRDPAPRGPARFLPLPGLPPAPPEPPGILAPQPPDVGSSDPLSMVGPSQGRSPSYAS
117% | FGF21 truncation mutant 4-181 (ligand) PDSSPLLQFGGQVRQRYLYTDDAQQTEAHLEIREDGTVGGAADQSPESLLQLKALKPGVIQILGVKTSRFLCQRPDGALYGSLHFDPEACSFRELLLEDGYNVYQSEAHGLPLHLPGNKSPHRDPAPRGPARFLPLPGLPPAPPEPPGILAPQPPDVGSSDPLSMVGPSQGRSPSYAS
74.2% | FGF21 truncation mutant 7-181 (ligand) SPLLQFGGQVRQRYLYTDDAQQTEAHLEIREDGTVGGAADQSPESLLQLKALKPGVIQILGVKTSRFLCQRPDGALYGSLHFDPEACSFRELLLEDGYNVYQSEAHGLPLHLPGNKSPHRDPAPRGPARFLPLPGLPPAPPEPPGILAPQPPDVGSSDPLSMVGPSQGRSPSYAS
112% | FGF21 truncation mutant 2-181 (ligand) PIPDSSPLLQFGGQVRQRYLYTDDAQQTEAHLEIREDGTVGGAADQSPESLLQLKALKPGVIQILGVKTSRFLCQRPDGALYGSLHFDPEACSFRELLLEDGYNVYQSEAHGLPLHLPGNKSPHRDPAPRGPARFLPLPGLPPAPPEPPGILAPQPPDVGSSDPLSMVGPSQGRSPSYAS
130% | FGF21 truncation mutant 3-181 (ligand) IPDSSPLLQFGGQVRQRYLYTDDAQQTEAHLEIREDGTVGGAADQSPESLLQLKALKPGVIQILGVKTSRFLCQRPDGALYGSLHFDPEACSFRELLLEDGYNVYQSEAHGLPLHLPGNKSPHRDPAPRGPARFLPLPGLPPAPPEPPGILAPQPPDVGSSDPLSMVGPSQGRSPSYAS

Molecular target: T1, β-Klotho overexpressed in recombinant …
Experiment: cell-based or functional assay
Remark: another data set of the same source

EC50 (nM), ELK-luciferase | Efficacy, ELK-luciferase | Binder
0.4 nM | 100% | human FGF21 (ligand) HPIPDSSPLLQFGGQVRQRYLYTDDAQQTEAHLEIREDGTVGGAADQSPESLLQLKALKPGVIQILGVKTSRFLCQRPDGALYGSLHFDPEACSFRELLLEDGYNVYQSEAHGLPLHLPGNKSPHRDPAPRGPARFLPLPGLPPAPPEPPGILAPQPPDVGSSDPLSMVGPSQGRSPSYAS
